Paper PMC12473987

Molecular target: strep-HA3/B (Clostridium botulinum serotype B strain Okra)
Test: SEC; […], PBS pH 6.0, 0.75 mL/min, […]

Substance: strep-HA3/B (domain or fragment)
- stoichiometry N: 3
